Experimental data taken from PMC3229571, “ZipA Binds to FtsZ with High Affinity and Enhances the Stability of FtsZ Protofilaments” (PLoS ONE, 2011).

Target: the molecule itself
Experiment: co-sedimentation; FtsZ 6 µM, 50 mM PIPES pH 6.0, 6.8 or 8.0, 1 mM MgCl2, 1 mM GTP, 10 min at 37°C; polymers sedimented at 88,760 x g, 30°C, 30 min; SDS-PAGE of pellets

B1: FtsZ (natural protein, E. coli, UniProt P0A9A6 1-383, looked up)
chain: MFEPMELTNDAVIKVIGVGGGGGNAVEHMVRERIEGVEFFAVNTDAQALRKTAVGQTIQIGSGITKGLGAGANPEVGRNAADEDRDALRAALEGADMVFIAAGMGGGTGTGAAPVVAEVAKDLGILTVAVVTKPFNFEGKKRMAFAEQGITELSKHVDSLITIPNDKLLKVLGRGISLLDAFGAANDVLKGAVQGIAELITRPGLMNVDFADVRTVMSEMGYAMMGSGVASGEDRAEEAAEMAISSPLLEDIDLSGARGVLVNITAGFDLRLDEFETVGNTIRAFASDNATVVIGTSLDPDMNDELRVTVVATGIGMDKRPEITLVTNKQVQQPVMDRYQQHGMAPLTQEQKPVAKVVNDNAPQTAKEPDYLDIPAFLRKQAD
notes: Cell division protein FtsZ, E. coli; no tag is named; also called recombinant E. coli FtsZ; source: E. coli BL21, purified (ammonium sulfate precipitation, desalting, polymerization and depolymerization step)
B1: binds.
